The record followed here is patent publication US20220106406A1 (UNIVERSITY OF KENTUCKY RESEARCH FOUNDATION, published 2022).

The target in one assay is T1, 3×FLAG-PRL-2 (human, UniProt Q12974 1-164).
T1 construct: Expressed in HEK293T cells, tested in cell lysate; Order of tag and PRL follows the printed name only; also called 3xFLAG-PRL-2; not shown: 3×FLAG tag from p3×FLAG-CMV-14
T1 sequence (looked up): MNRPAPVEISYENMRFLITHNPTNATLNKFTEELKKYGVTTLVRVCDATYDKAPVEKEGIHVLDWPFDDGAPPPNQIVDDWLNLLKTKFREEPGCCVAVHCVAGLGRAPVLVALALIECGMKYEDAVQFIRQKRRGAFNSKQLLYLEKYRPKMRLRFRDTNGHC
Put plainly: immunoprecipitation from HEK293T lysate with nanobody-coupled Dynabeads, anti-FLAG blot. On the procedure:
(§1) HEK293T cells (˜20 million) were lysed for 30 minutes with intermittent vortexing in Pierce IP lysis buffer (Thermo 87788) supplemented with 1% protease inhibitor cocktail (IP buffer) at 500 μl per 10 million cells and spun at 12,000 rpm for 10 minutes at 4° C. to pellet cell debris. Protein concentration was quantified using the Quick Start Bradford 1× Dye Reagent (Biorad, 5000205). 150 μL of nanobody-coupled beads were washed in 1 mL of PBS for 5 minutes, precipitated, then equilibrated in 500 μL of IP buffer for 5 minutes. 2.5 mg of total extracted protein was added to the balanced nanobody-beads complex for incubation with rocking at 4° C. overnight. After washing the beads-protein complex in cold PBS four times, 50 μL 2× Laemmli Sample Buffer (Biorad, 161-0737) with 2-Mercaptoethanol (Fisher Scientific, 034461-100) was added to the beads, the mixture was boiled at 95° C. for 10 minutes, and the supernatant was collected for western blot analysis.
(§2) PRL-3 substrates remain largely undefined, in part due to insufficient tools for cell-based studies. The current commercially available PRL-3 antibodies have not been extensively validated for specificity towards PRL-3 over other PRLs. To address this, the ability of the anti-PRL-3 nanobodies to identify PRL-3 protein in cell lysate was tested. Anti-PRL-3 nanobodies were coupled to superparamagnetic Dynabeads® M-270 Epoxy beads and used in immunoprecipitation of HEK293T cells expressing either 3×FLAG-PRL-1, -2, or -3. All nanobodies selectively pulled-down 3×FLAG-PRL-3 over PRL-1 and PRL-2, as assessed by anti-FLAG immunoblot (FIGS. 7A and 9A-I). Some nanobodies were more specific to PRL-3 than others; nanobodies 4, 16, 19, and 84 pulled down small amounts of 3×FLAG-PRL-1 and/or PRL-2 (FIG. 3A). Successful nanobody coupling to Dynabeads was confirmed by the presence of 6×-His-tag in all samples (FIG. 3B). […] In total, anti-PRL-3 nanobodies 10, 26, and 91 can be used to specifically immunoprecipitate PRL-3, with no binding to PRL-1 or PRL-2.

The target in another assay is T2, 3×FLAG-PRL-1 (human, UniProt Q93096 1-170).
T2 construct: Expressed in HEK293T cells, tested in cell lysate; Order of tag and PRL follows the printed name only; also called 3xFLAG-PRL-1; not shown: 3×FLAG tag from p3×FLAG-CMV-14
T2 sequence (looked up): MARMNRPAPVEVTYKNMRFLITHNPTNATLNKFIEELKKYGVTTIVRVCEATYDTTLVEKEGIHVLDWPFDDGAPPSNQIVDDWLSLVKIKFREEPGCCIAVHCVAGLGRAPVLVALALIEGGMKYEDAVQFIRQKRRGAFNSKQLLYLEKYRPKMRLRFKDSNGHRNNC
The assay is described as above. Here is the method:
as §1, §2

A further assay concerns the target T3, GFP-PRL-2 (UniProt Q12974 1-164).
T3 construct: Expressed in HCT116 cells, fixed and permeabilized for immunofluorescence; also called CMV:GFP-PRL-2
T3 sequence (looked up): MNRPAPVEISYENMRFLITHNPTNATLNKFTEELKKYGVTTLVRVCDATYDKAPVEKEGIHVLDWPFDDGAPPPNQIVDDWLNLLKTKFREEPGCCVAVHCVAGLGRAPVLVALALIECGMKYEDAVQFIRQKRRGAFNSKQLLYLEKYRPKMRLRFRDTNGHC
Description: immunofluorescence on fixed, permeabilized transfected HCT116 cells. Here is the method:
(§3) HCT116 colorectal cancer cells were transfected with A—CMV:GFP, CMV:GFP-PRL-1, CMV:GFP-PRL-2, or CMV:GFP-PRL-3 for 24 hours prior to cell fixation and permeabilization. Immunofluorescence assays were completed with 1:1000 1 mg/mL NB91 followed by 1:400 Alexa Fluor® 594-AffiniPure Goat Anti-Alpaca IgG, VHH domain and show nanobodies detect PRL-3 but not PRL-1 or PRL-2.
(§4) Transfected cells were plated at 5,000 cells per well in 96-well black glass bottomed plates (Cellvis, P96-1.5H-N). All solution exchanges and imaging occurred in the 96-well plate. 24 hours post-transfection cells were fixed in 4% paraformaldehyde (VWR, AAJ61899-AK) for 15 minutes, rinsed in PBS, permeabilized for 10 minutes in 1% 100× Triton (Sigma, X100-100), and rinsed in PBS. Blocking solution of 2% BSA in PBS was applied for 1 hour to all wells. All nanobodies were diluted to 1 mg/ml in blocking solution, and further diluted 1:1000 and incubated with the cells for 1 hour at room temperature followed by five PBS washes. Detection was carried out using an anti-alpaca IgG VHH conjugated to Alexa Fluor-594 (Jackson ImmunoResearch, 128-585-232) diluted 1:400 in blocking solution, and counterstained with Hoechst, 1:1000 dilution (ThermoFisher, H3570). All wells were washed in PBS five times prior to imaging. Images were acquired with a Nikon MR confocal using the 40× water objective. […]

A further assay addresses T4, GFP-PRL-1 (UniProt Q93096 1-170).
T4 construct: Expressed in HCT116 cells, fixed and permeabilized for immunofluorescence; also called CMV:GFP-PRL-1
T4 sequence (looked up): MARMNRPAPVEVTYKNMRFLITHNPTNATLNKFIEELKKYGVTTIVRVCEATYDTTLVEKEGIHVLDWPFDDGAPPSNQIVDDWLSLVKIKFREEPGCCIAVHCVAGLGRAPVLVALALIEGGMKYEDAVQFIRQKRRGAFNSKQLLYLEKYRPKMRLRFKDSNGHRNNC
Described as above. On the procedure: as §3, §4

B1: NB91 (VHH)
VHH: QVQLQESGGGLVQTGGSLRLSCAASQSTFNFDVMGWYRLAPGKQREFLTSITNGGNIYYADSVKGRFTIARDDSKTTMYLEMNSLKPEDTAVYTCYGQTHKPRVTTSWGQGTQVTVSS
notes: Alpaca nanobody expressed from pMES4 in E. coli; also called nanobody 91; Nanobody 91
On to B1, for which the binding result with 3×FLAG-PRL-2 is “no binding”; with 3×FLAG-PRL-1, “no binding”; with GFP-PRL-2 it was “no binding (tested: 1:1000 of 1 mg/mL)”; with GFP-PRL-1, “no binding (tested: 1:1000 of 1 mg/mL)”.

B2: NB10 (VHH)
VHH: QVQLQESGGGLVQTGGSLRLSCAASQSTFNFNVMGWYRLAPGKQREFLPSLTNGGNIYYADSVKGRFTIARDDSKTTTYLEMNSLKPEDTAVYTCYGQTHKPRVTTSWGQGTQVTVSS
notes: Alpaca nanobody, C-terminal 6xHis tag intact; also called nanobody 10
B2: the binding result with 3×FLAG-PRL-2 and with 3×FLAG-PRL-1 was “no binding” throughout.

B3: NB26 (VHH)
VHH: QVQLQESGGGLVQPGGSLKLSCVVTGLHYYTEGWFRQAPGKEREGVSCISSSDGRTDYIDSVKGRFTISEDNDNKTVYLQMNTLKPDDTGVYYCVAERGPRGSTWWETYDYWGQGTHVTVSS
notes: Alpaca nanobody, C-terminal 6xHis tag intact; also called nanobody 26; Nanobody 26
Consider B3, for which the binding result with 3×FLAG-PRL-2 and with 3×FLAG-PRL-1 was “no binding” each time.
